Laboratory results: patent publication US20230365662A1
“And” between values parts separate entries of the source, which are not always exact repeats. Identical values can stand only once.

B1: KB001 mouse Fab VL T24N (Fab, V domains shown)
VH: EVQLKQSGPGLVAPSQSLSITCTVSGFSLSIYSVHWVRQPPGKGLEWLGMIWGGGSSDYNSALKSRLSISKDNSKSQVFLKMNSLQTDDTAMYYCARNGNFYAMDYWGQGTSVTVSS
VL: QIVLTQSPAIMSASLGERVTMTCNASSSVSSSFLHWYQQKPGSSPQLWIYSTSNLASGVPARFSGSGSGTSYSLTISSMEAEDAATYYCHQYHHSPYIYTFGGGTKLEIK
B2: KB001 mouse Fab VL A25Y (Fab, V domains shown)
VH: EVQLKQSGPGLVAPSQSLSITCTVSGFSLSIYSVHWVRQPPGKGLEWLGMIWGGGSSDYNSALKSRLSISKDNSKSQVFLKMNSLQTDDTAMYYCARNGNFYAMDYWGQGTSVTVSS
VL: QIVLTQSPAIMSASLGERVTMTCTYSSSVSSSFLHWYQQKPGSSPQLWIYSTSNLASGVPARFSGSGSGTSYSLTISSMEAEDAATYYCHQYHHSPYIYTFGGGTKLEIK
B3: KB001 mouse Fab VL A25G (Fab, V domains shown)
VH: EVQLKQSGPGLVAPSQSLSITCTVSGFSLSIYSVHWVRQPPGKGLEWLGMIWGGGSSDYNSALKSRLSISKDNSKSQVFLKMNSLQTDDTAMYYCARNGNFYAMDYWGQGTSVTVSS
VL: QIVLTQSPAIMSASLGERVTMTCTGSSSVSSSFLHWYQQKPGSSPQLWIYSTSNLASGVPARFSGSGSGTSYSLTISSMEAEDAATYYCHQYHHSPYIYTFGGGTKLEIK
B4: KB001 mouse Fab VL A25E (Fab, V domains shown)
VH: EVQLKQSGPGLVAPSQSLSITCTVSGFSLSIYSVHWVRQPPGKGLEWLGMIWGGGSSDYNSALKSRLSISKDNSKSQVFLKMNSLQTDDTAMYYCARNGNFYAMDYWGQGTSVTVSS
VL: QIVLTQSPAIMSASLGERVTMTCTESSSVSSSFLHWYQQKPGSSPQLWIYSTSNLASGVPARFSGSGSGTSYSLTISSMEAEDAATYYCHQYHHSPYIYTFGGGTKLEIK
B5: KB001 mouse Fab VL S26G (Fab, V domains shown)
VH: EVQLKQSGPGLVAPSQSLSITCTVSGFSLSIYSVHWVRQPPGKGLEWLGMIWGGGSSDYNSALKSRLSISKDNSKSQVFLKMNSLQTDDTAMYYCARNGNFYAMDYWGQGTSVTVSS
VL: QIVLTQSPAIMSASLGERVTMTCTAGSSVSSSFLHWYQQKPGSSPQLWIYSTSNLASGVPARFSGSGSGTSYSLTISSMEAEDAATYYCHQYHHSPYIYTFGGGTKLEIK
B6: KB001 mouse Fab VL A25V (Fab, V domains shown)
VH: EVQLKQSGPGLVAPSQSLSITCTVSGFSLSIYSVHWVRQPPGKGLEWLGMIWGGGSSDYNSALKSRLSISKDNSKSQVFLKMNSLQTDDTAMYYCARNGNFYAMDYWGQGTSVTVSS
VL: QIVLTQSPAIMSASLGERVTMTCTVSSSVSSSFLHWYQQKPGSSPQLWIYSTSNLASGVPARFSGSGSGTSYSLTISSMEAEDAATYYCHQYHHSPYIYTFGGGTKLEIK
B7: KB001 mouse Fab VL A25P (Fab, V domains shown)
VH: EVQLKQSGPGLVAPSQSLSITCTVSGFSLSIYSVHWVRQPPGKGLEWLGMIWGGGSSDYNSALKSRLSISKDNSKSQVFLKMNSLQTDDTAMYYCARNGNFYAMDYWGQGTSVTVSS
VL: QIVLTQSPAIMSASLGERVTMTCTPSSSVSSSFLHWYQQKPGSSPQLWIYSTSNLASGVPARFSGSGSGTSYSLTISSMEAEDAATYYCHQYHHSPYIYTFGGGTKLEIK
B8: KB001 mouse Fab VL S26P (Fab, V domains shown)
VH: EVQLKQSGPGLVAPSQSLSITCTVSGFSLSIYSVHWVRQPPGKGLEWLGMIWGGGSSDYNSALKSRLSISKDNSKSQVFLKMNSLQTDDTAMYYCARNGNFYAMDYWGQGTSVTVSS
VL: QIVLTQSPAIMSASLGERVTMTCTAPSSVSSSFLHWYQQKPGSSPQLWIYSTSNLASGVPARFSGSGSGTSYSLTISSMEAEDAATYYCHQYHHSPYIYTFGGGTKLEIK

These binders were tested against HRgpA-6H (Porphyromonas gingivalis) (UniProt P28784) (assay: ELISA, FASEBA Fab on coated HRgpA-6H).
Chain of UniProt P28784 (P28784 228-991): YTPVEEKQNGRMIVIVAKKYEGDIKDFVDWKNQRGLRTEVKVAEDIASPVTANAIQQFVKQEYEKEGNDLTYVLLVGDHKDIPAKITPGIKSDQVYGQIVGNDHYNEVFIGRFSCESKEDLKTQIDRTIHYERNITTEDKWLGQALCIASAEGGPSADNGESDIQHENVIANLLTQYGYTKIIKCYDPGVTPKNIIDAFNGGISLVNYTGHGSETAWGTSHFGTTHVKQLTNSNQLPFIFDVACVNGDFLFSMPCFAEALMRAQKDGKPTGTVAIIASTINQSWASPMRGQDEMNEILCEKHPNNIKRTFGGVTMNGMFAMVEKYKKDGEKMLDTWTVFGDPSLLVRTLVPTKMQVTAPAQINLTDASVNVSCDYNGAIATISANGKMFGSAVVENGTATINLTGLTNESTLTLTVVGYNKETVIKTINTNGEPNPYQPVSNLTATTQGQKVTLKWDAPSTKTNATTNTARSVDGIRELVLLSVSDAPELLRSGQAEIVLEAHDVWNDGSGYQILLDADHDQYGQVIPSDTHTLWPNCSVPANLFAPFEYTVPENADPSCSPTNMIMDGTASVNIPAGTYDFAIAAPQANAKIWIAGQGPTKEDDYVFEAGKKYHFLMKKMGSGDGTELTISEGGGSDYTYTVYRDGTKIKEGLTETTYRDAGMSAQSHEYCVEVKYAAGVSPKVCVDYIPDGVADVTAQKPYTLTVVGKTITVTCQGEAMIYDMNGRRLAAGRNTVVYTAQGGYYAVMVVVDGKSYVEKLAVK
With B1 the OD450nm was 0.715 and 0.8 and the Ratio OD(Variant)/OD(WT) was 0.93 and 1.04.
In the case of B2, the OD450nm is reported as 0.755 and 0.757 and the Ratio OD(Variant)/OD(WT) is reported as 0.964 and 0.967.
With B3 the OD450nm was 0.668 and 0.699 and 0.673 and the Ratio OD(Variant)/OD(WT) was 0.853 and 0.893 and 0.86.
B4 was tested, and the OD450nm was 0.655 and the Ratio OD(Variant)/OD(WT) was 0.837.
B5 gave an OD450nm of 0.73 and a Ratio OD(Variant)/OD(WT) of 0.932.
Work on B6 yielded an OD450nm of 0.768 and a Ratio OD(Variant)/OD(WT) of 0.981.
For B7, the OD450nm was 0.742 and 0.766 and 0.749 and the Ratio OD(Variant)/OD(WT) was 0.948 and 0.978 and 0.957.
B8 was tested, and the OD450nm was 0.644 and 0.677 and the Ratio OD(Variant)/OD(WT) was 0.822 and 0.865.
